From article PMC5113729 (Nature structural & molecular biology, 2016) come the findings set out here.

The chains are these.
B2: Sp Dcp1(1-127) (natural protein, fission yeast (Sp), UniProt Q9P805 1-127, looked up)
chain: MEDENILRNAVNLQVLKFHYPEIESIIDIASHVAVYQFDVGSQKWLKTSIEGTFFLVKDQRARVGYVILNRNSPENLYLFINHPSNVHLVDRYLIHRTENQHVVGLWMFDPNDMSRIFNIVKESLLR

The target in assay [1] is B2. The assay can be described thus: crystal structure.
The target of assay [2] is T1, Sp Dcp2(1-243), as part of the single chain (fission yeast (Sp), UniProt O13828 1-243).
T1 sequence (looked up): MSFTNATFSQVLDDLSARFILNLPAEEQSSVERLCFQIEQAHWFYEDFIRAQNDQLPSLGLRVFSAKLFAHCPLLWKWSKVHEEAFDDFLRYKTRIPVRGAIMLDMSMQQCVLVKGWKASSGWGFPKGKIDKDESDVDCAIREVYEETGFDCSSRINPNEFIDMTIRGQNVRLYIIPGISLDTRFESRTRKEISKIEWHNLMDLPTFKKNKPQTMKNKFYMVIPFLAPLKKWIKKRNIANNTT
Kind of assay: crystal structure.

B1: Hs PNRC2(91-121) (domain or fragment)
chain: not shown
In the case of B1, in assay [1], the binding result is listed as “binds”. Consider B2, for which the binding result in assay [2] is “binds”.
